In the nanobody polyreactivity screen of Harvey et al. (2022):

Test: yeast display, Sf9 membrane polyspecificity reagent, FACS + sequencing; frameworks hold sequencing errors
Method in brief: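 Nanobodies from a synthetic yeast display library (Saccharomyces cerevisiae BJ5465), induced 36–48 hours with galactose, were stained 1 hour at 4 °C with 10% biotinylated, detergent-solubilized Sf9 membrane reagent, enriched on streptavidin microbeads, then FACS-sorted. Anti-HA (expression) and streptavidin (reagent binding) fluorescence set low and high (top ~1%) gates. Polyreactivity labels come from the gate of origin. Genes were colony-PCR amplified, MiSeq 2 × 250 sequenced and filtered by CDR length.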

Sequence | polyreactivity (PSR sort gate)
QVQLVESGGGLDQAGGSLRLSCAASGFTFYRNAMGWYRQAPGKERELVAAITSGGSTYYADSVKGRFTISRDNAKNTVYLQMNSLKPEDTAVYYCAAYVWSGWGHWFYYWGQGTQVTVSS | high polyreactivity
QVQLVESGGGLDQAGGSLRLSCAASGGIFQKYAMGWYRQAPGQERELVAAISYSTTRTYYADSVKGRFTISRDNAKKTVYLQMNSLKPEDTAVYYCAARGYFWSSYKYDYWGQGTQVTVSS | high polyreactivity
QVQLVESGGGLDQAGGSLRLSCAASGGTFAVYAMGWYRQAPGKERELVAAIDSGGRTNYADSVKGRFTISRANAKNTVYLQMNSLKPEDTAVYYCAADGGGQYVRYDYWGQGTQVTVSS | high polyreactivity
QVQLVESGGGLDQAGGSLRLSCAASGGTFDTYAMGWYRQAPGKERELVAGIDWSGGSTYYADSVKGRFTISRDNAKNTVYLQMNSLKPEDTAVYYCAADYYYPSQMDYWGQGTQVTVSS | low polyreactivity
QVQLVESGGGLDQAGGSLRLSCAASGIIFSSYAMGWYRQAPGKERELVAAISYSGGSTYYADSVKGRFTISRDNAKNTVYLQMNSLKPEDTAVYYCAAQGYSPGGYDYWGQGTQVTVSS | low polyreactivity
QVQLVESGGGLDQAGGSLRLSCAASGIIFVENAMGWYRQAPGKERELVASGDSTYADSVKGRFTISRDNAKNTVYLKMNSRKPEDTAVYYCAAEVYVYHPFVHYDYWGQGTQVTVSS | low polyreactivity
QVQLVESGGGLDQAGGSLRLSCAASGITFKPYGMGWYRQAPGKERELVADITSGGITYYADSVKGRFTISRDNAKNTVYLQMNSLKPEDTAVYYCATGDLFVFYWGYVVRLYDYWGQGTQVTVSS | low polyreactivity
QVQLVESGGGLDQAGGSLRLSCAASGITFQSNAMGWYRQAPGKERELVAGISGSGARTYYADSVKGRFTISRDNAKNTVYLQMNSLKPEDTAVYYCAKKSSYRYGYWGQGTQVTVSS | high polyreactivity
QVQLVESGGGLDQAGGSLRLSCAASGITFRYYAMGWYRQAPGKERELVATISRGVRTNYADSVKGRFTISRDNAKNTVYLQMNSLKPEDTAVYYCNADYASARRYDYWGQGTQVTVSS | high polyreactivity
QVQLVESGGGLDQAGGSLRLSCAASGLTFGGNAMGWYRQAPGKERELVAAISWSDDTTDYADSVKGRFTISRDNAKNTVYLQMNSLKPEDTAVYYCAARLPFEHVDYWGQGTQVTVSS | low polyreactivity
QVQLVESGGGLDQAGGSLRLSCAASGLTFYSNAMGWYRQAPGKERELVARISTGGSTYADSVKGRFTISRDNAKNTVYLQMNSLKPEDTAVNYCAKLPPRGIDDEYWGQGTQVTVSS | low polyreactivity
QVQLVESGGGLDQAGGSLRLSCAASGLTLAVNAMGCYRQAPGKERELVAAISRRGGSTYYADSVKGRFTISRDNSKNPVYLQMNSLKPEDTAVYYCAAKYNYSEMDSWGQGTQVTVSS | high polyreactivity
QVQLVESGGGLDQAGGSLRLSCAASGNIFRIYAMGWYRQAPGKERELVATITKRGGSTYYADSVKGRFTISRDNAKNTVYLQMNSLKPEDTAVNYCNAVTKLWYDYDYWGQGTQGTVSS | high polyreactivity
QVQLVESGGGLDQAGGSLRLSCAASGNIFYTNAMGWYRQEPGKAREFVAAISGSGGRTYYADSVKGRFTMSRDNAKNTFYLQMNSLKPEDTEVYYCNAVRRDYYDRNYGYWGQGTQVSVSS | low polyreactivity
QVQLVESGGGLDQAGGSLRLSCAASGRIFDKYALGCYRHAPGKERELVAAISSSGGSTYYADSVKGRFTISRDNAKNTVYLQMNSLKTEDTAVYYCAKLVVVPFYYWGQGTQVTVSS | high polyreactivity
QVQLVESGGGLDQAGGSLRLSCAASGRIFGRYAMGWYRQAPGKERELVASISRGGSTNYADSVKGRFTISRDNAKNTVYLQMNSLKPEDTAVYYCAKSGGVGGEDRVGSWGQGTQVTVSS | low polyreactivity
QVQLVESGGGLDQAGGSLRLSCAASGRIFRYYAMGWYRQAPGKERELVAAISTSGDTTYYADSVKGRFTISRDNAKNTVYLQMNSLKPEDTAVYYCAADTYYYLVKYGSYDYWGQGTQVTVSS | high polyreactivity
QVQLVESGGGLDQAGGSLRLSCAASGRIFYQNAMGWYRQAPGKERELVAAITSSGVSTYYADSVKGRFTISRDYAKNTVYLQMNSLKPEDTAVYYCAAYRVGYGGYSYYYWGQGTQVTVSS | high polyreactivity
QVQLVESGGGLDQAGGSLRLSCAASGRISYRYAMGSYRQAPGKEMELVASISSGVSTYYADSVKGRFTISRDNAKNTVYLQMHSLKPEDSAVYFCAAAYWFHNDYWGLGTQVTVSS | high polyreactivity
QVQLVESGGGLDQAGGSLRLSCAASGRIYYNYAMGWYRQSPVKERELVAAISGSGGSTYYADSVKWRLTISRDNAKNTVYLLMNSLKPEDTAVYYCSTSGPQYYSRNFDYWGQGTQVTVSS | low polyreactivity
QVQLVESGGGLDQAGGSLRLSCAASGRIYYPYARGLYRQAPGKESELVAAISSGVSTNYADSVKGRFTISRDNAKTTVYLQMNSLKPEDTAVYYCARTYFRFASSYYPAVSHGYWGQGTQVTVSS | high polyreactivity
QVQLVESGGGLDQAGGSLRLSCAASGRTFEQYAMGWYRQAPGKVRELVAAISGSGGSTFYADSVKGRFTISRDNAKNTVYLQMNSLKPEDTAVYYCADKYDGSYVGLYWYSMNYCGQGTQVTVSS | low polyreactivity

Sequence | polyreactivity (PSR sort gate)
QVQLVESGGGLDQAGGSLRLSCAASGRTFGGYAMGWYRQAPGKERELVARISRSGGSTYYADSVKGRFTISRDNAKNTVYFQMNSLKPEDTAVYYCNTGLRTAYGWPQDDYWGQGTQVTVSS | low polyreactivity
QVQLVESGGGLDQAGGSLRLSCAASGRTFPYYAMGWYRQAPGKERELVAAISSSGGRTYYADSVKGRFTISRDNAKNTVYLQMNSLKPEDTAVYYCNVDAWYPYQGFLVGYYYWGQGTQVTVSS | low polyreactivity
QVQLVESGGGLDQAGGSLRLSCAASGRTFYNNAMGWYRPAPGKERELVAAITRGGSTYYADSVKGRFTISRDNAKNTVYLPMNSLKPEDTAVYYCAADGFTRWGRYDYWGQGTQVTVSS | high polyreactivity
QVQLVESGGGLDQAGGSLRLSCAASGRTFYYYAMAWYRQAPRTERELVAAIRRSGSSTYYADSVKGRFTISRDNAKNTVYLQMNSLKPEDTAFYYCAAAVYQRARYYWGQGTQVTVSS | high polyreactivity
QVQLVESGGGLDQAGGSLRLSCAASGRTLYKYAMGWYRQAPGKERELVAAIRWIGGSTYYADSVKGRFTISRDNAKNTVYLQMNSLKPEDTAVYYCAATYYYSRYGRYDYWGQGTQVTVSS | high polyreactivity
QVQLVESGGGLDQAGGSLRLSCAASGSIFDPYAMGWYRPAPGKEREFVAVISKGGTNTYYADSVKGRFTISRDNAKNTVYLQMNSLKPEDTAGYYCAARVDTYRAKYYYWRQGTQVTVSS | high polyreactivity
QVQLVESGGGLDQAGGSLRLSCAASGSIFEGNGMGWYRQAPGKERELVAAITFRSGSTYYADSVKGRFTISRDNAKNTVYLQMNSLKPEDTAVYYCAADEYYQVSAYDYWGQGTQVTVSS | low polyreactivity
QVQLVESGGGLDQAGGSLRLSCAASGSIFEPYDMGWYRQAPGKERELVASISRGGSTYYADSVKGRFTISRDNAKNTVYLQMNSLKPEDTAVYYCAADPYYYSSGYYYWGQGTQVTVSS | low polyreactivity
QVQLVESGGGLDQAGGSLRLSCAASGSIFGYAMGWYRQAPGKERELLAAITDSGGRTYYADSVKGRFTISRDNAKNTVYLQMNSLKPEDTAVYYCAKTWYPWSRYGYYRRYDSWGQGTQVNVSS | low polyreactivity
QVQLVESGGGLDQAGGSLRLSCAASGSIFPDYAMGWYIPAPGKERELVAAITWSGGNTYYADSVKGRFTISRDNAKNTVYLQMNSLKPEDTAVYYCAADISLHWYYYRRYNYWGQGTQVTVSS | low polyreactivity
QVQLVESGGGLDQAGGSLRLSCAASGSIFQDYAMGWYRQAPGKERELVAAITKSGVSTYYADSVKGRFTISRDNAKNTVYLQMNSLKPEDTAVYYCAAPRYVRYHRGYGFDYWGQGTQVTVSS | low polyreactivity
QVQLVESGGGLDQAGGSLRLSCAASGSIFYRNAMGWYRQAPGKEMELVAAISGRGGSTNYADSVKGRFTISRDNAKNTVYLPMNSLKPEDTAVYYCNRFGVSNILVRGGYWGLGTQVTVSS | high polyreactivity
QVQLVESGGGLDQAGGSLRLSCAASGSTFDWYTMGWNRQAPGKERELVAAISSGGRTYYADSVKGRFTISRDNAKNTVYLQMNSLKPEDTAVYYCAVAWRVGITKYGYWGQGTQVTVSS | high polyreactivity
QVQLVESGGGLDQAGGSLRLSCAASGSTFGYYAMGWYREAPGKERELVASITSDGSTNYADSVKGRFTISRDNAKNTVYLQMNSLKPEDTAVYYCAAYVWRYWHEYDYWGQGTLVTVSS | low polyreactivity
QVQLVESGGGLDQAGGSLRLSCAASGSTFNSYAMGWYRQAPGKERELVAAITSSVGSTYYADSVKGRFTISRDNAKNTVYLQMNSLKPEDTAVYYCAADYFSYWYFSGYDYWGQGTQVTVSS | low polyreactivity
QVQLVESGGGLDQAGGSLRLSCAASGSTFNSYVMGCYRQAPGKEREFVAAISWSGVRTYYADSVKGRFTISRDNAKNTVFLQMNSLIPEDTAVYYCAVRSGRRNYYRPAFGYWGQGTQVTVSS | high polyreactivity
QVQLVESGGGLDQAGGSLRLSCAASGSTFNWYTMGWYRQAPGKERELVAAISLNGGRTYYADSVKGRFTISRDNAKNTVYFQMNSLKQEDTAVYYCAAQISFYFAQYNLARFRGYYWGQGTQVTVSS | high polyreactivity
QVQLVESGGGLDQAGGSLRLSCAASGSTFRSNAMGWYRQAPGKERELVAGITSGTSTNYADSVKGRFTISRDNAKNTVYLQMNSLKPEDTAVYYCNTDRIWYGPEYDYWGQGTQVTVSS | low polyreactivity
QVQLVESGGGLDQAGGSLRLSCAASGSTFSRNAMGWYRQAPGKERELVAGISYIGGRTYYADSVKGRFTISRDNAKNTVYLQMNSLKPEDTAVYYCNVVPKSRDWQSYGSWGQGTQVTVSS | high polyreactivity
QVQLVESGGGLDQAGGSLRLSCAASGSTFYPYAMGWYRQAPGKERDFVAAISYSAGSTYYADSVKGRFTISRDNAKNTVYLQMHSLKPEDTAVYYCADYGWYTYQTSYDYWGQGTQVTVSS | low polyreactivity
QVQLVESGGGLDQAGGSLRLSCAASGSTLPVYALGWNRQAPGKERELVAAITDSGGNTYYADSVKGRFTISRDNAKNTVYLQMNSLKPEDTAVYYCNADAQSTSGYGYYAPYWMDYWGQGTQVTVSS | low polyreactivity
